The values below come from the RNAGym collection of RNA variant scans (doi:10.1073/pnas.2313332121).

Variants at the floor of the assay were thinned out.

To fix the notation:
B1: TPR 5TU (parent)
chain: GGAUCUUCUCGAUCUAACAAAAAAGACAAAUCUGCCACAAAGCUUGAGAGCAUCUUCGGAUGCAGAGGCGGCAGCCUUCGGUGGCGCGAUAGCGCCAACGUUCUCAACUAUGACACGCAAAACGCGUGCUCCGUUGAAUGGAGUUUAUCAUG

In this data set the parent is B1. Description: polymerase ribozyme fitness, log enrichment relative to wild type (log ratio); higher = more active; in vitro selection for triplet polymerase activity. The gist of the method: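 Both subunits of a heterodimeric triplet polymerase ribozyme were given their own mutant library, built by PCR and transcribed. Each library was annealed with a biotinylated primer, the partner subunit and triplets, incubated frozen at −7 °C, and its extended constructs gel-excised, captured on streptavidin beads and amplified by RT-PCR, all in one round done in triplicate. Fitness is the logarithm of genotype enrichment relative to wild-type enrichment, with replicates averaged by inverse-variance weighting. That logarithm is base 2, and Illumina-sequenced genotypes needed ≥10 input reads and ≥1 read per output.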
GGAUCUUCUCGAUCUAACAAAAAAGACAAAUCUGCCACAAAGCUUGAGAGCAUCAUCGGAUGGAGAGGCGGCAGCUUGCGGUGGCGCGAUACCGCCAACGUUCUCAACUAUGACACGCAAAACGCGUGCUCCGUUUAAUGCAGUUUAUCAUG [U55A C63G C76U U78G G92C G136U G141C]: the “polymerase ribozyme fitness (log ratio)” value is at most -4.2.

With GGAUCUUCUCGAUCUAACAAAAAAGACAAAUCUGCCACAAAGCUUGAGAGCAUCAUCGGAUGAAGAGGCGGCAGCCUUCGGUGGCGCGAUAGCGCCAACGUUCUCAACUAUGACACGCAAAACGCGUGCUCCGUUGAAUGGAGUUUAUCAUG [U55A C63A], the “polymerase ribozyme fitness (log ratio)” value was -0.431. With GGAUCUUCUCGAUCUAACAAAAAAGACAAAUCUGCCACAAAGCUUGAGAGCAUCAUCGGAUGCAGAGGCGGUAGCCUUAGGUGGCGCGAUAGCGCCAACGUUCUCAGCUAUGACACGCAAAACGCGUGCUCCGUUGAAUGGAGUUUAUCAUG [U55A C72U C79A A107G], the “polymerase ribozyme fitness (log ratio)” value is at most -4.2. For the variant GGAUCUUCUCGAUCUAACAAAAAAGACAAAUCUGCCACAAAGCUUGAGAGCAUCAUCGGAUGAAGAGGCGGCAGCCUUCGGUCUCGCGAUAGCGCCAACGUUCUCAACUAUGACACGCAAAACGGGUGCUCCGUAGAAUGGAGUUUAUCAUG [U55A C63A G83C G84U C125G U135A], the “polymerase ribozyme fitness (log ratio)” value was at most -4.2. With GGAUCUUCUCGAUCUAACAAAAAAGACAAAUCUGCCACAAAGCUUGAGAGCAUCAUCGGAUGCAGAGGCGGAAGCCUUCGGUGGCGCGAUAGCGCCAACGUUCUCAACUAUGACACGCUAAACGCGUGCUCCGUUGAAUGGAGUUUAUCAUG [U55A C72A A119U], the “polymerase ribozyme fitness (log ratio)” value is at most -4.2. The figure for GGAUCUUCUCGAUCUAACAAAAAAGACAAAUCUGCCACAAAGCUUGAGAGCAUCAUCGGAUGCAGAGGCGGUAGCCUUCGGUAGCGCGAUAGCGCCAACGUUCUCAACUAUGACACGCAAAACGCGUGCUCCGUUGAAUGGAGUUUAUCAUG [U55A C72U G83A] is -0.82; for GGAUCUUCUCGAUCUAACAAAAAAGACAAAUCUGCCACAAAGCUUGAGAGCAUCAUCGGAUGCAGAGGCGGCAGUCUUCGGUGGCGCGAUAGCGCCAACGUUCUCAACUAUGACACGCAAAACGCGUGCUCCGUUGAAUGGAGUUUAUCAUG [U55A C75U] it is 0.238. Take GGAUCUUCUCGAUCUAACAAAAAAGACAAAUCUGCCACAAAGCUUGAGAGCAUCAUCGGAUGCAGAGGUGGCAGCCUUCGGUGGCGCGAUAGCGCCAACGUUCUCAACUAUGACACGCAAAACGCGUGCUCCGUUAAAUGGAGUUUAUCAUG [U55A C69U G136A]: the “polymerase ribozyme fitness (log ratio)” value was -3.04. In the case of GGAUCUUCUCGAUCUAACAAAAAAGACAAAUCUGCCACAAAGCUUGAGAGCAUCAUCGGAUGCAGAGGCGGUAGCUUCCGGUGACGCGAUAGCGCCAACGUUCUCAACUAUGACACGCAAAACGCGUGCUCCGUUGAAUGGAGUUUAUCAUG [U55A C72U C76U U78C G84A], the “polymerase ribozyme fitness (log ratio)” value was -2.57. Take GGAUCUUCUCGAUCUAACAAAAAAGACAAAUCUGCCACAAAGCUUGAGAGCAUCAUCGGAUGCAGAGGGGGCAGCCUUCGGUGGCGCGAUAGCGCCAACGUUCUCAACUAUGACACGCAAAACGCGUGCUCCGUUGAAUGGAGUUUAUCAUG [U55A C69G]: the “polymerase ribozyme fitness (log ratio)” value is -3.05.

In the case of GGAUCUUCUCGAUCUAACAAAAAAGACAAAUCUGCCACAAAGCUUGAGAGCAUCAUCGGAUGCAGAGGAGGCAGCCUUCGGUGGCGCGAUAGCGCCUACGUCCUCAACUAUGACACGCAAAACGCGUGCUCCGUUGAAUGGAGUUUAUAAUG [U55A C69A A97U U102C C149A], the “polymerase ribozyme fitness (log ratio)” value is at most -4.2. The figure for GGAUCUUCUCGAUCUAACAAAAAAGACAAAUCUGCCACAAAGCUUGAGAGCAUCAUCGGAUGCAGAGGCGGCAGCAUUCGGUGGCGCGAUAGCGCCAACGUUCUCAACUAUGAUACGCAAAACGCGUGCUCCGUUGAAUGGAGUUUAUCAUG [U55A C76A C114U] is -3.91; for GGAUCUUCUCGAUCUAACAAAAAAGACAAAUCUGCCACAAAGCUUGAGAGCAUCAUCGGAUGCAGAGGUGGCAGCCUUCGGUGGCGCGAUAGCCCCAACGUUCUCAACUAUGACACGCAAAACGCGUGCUCCGUUGAAUGGAGUUUAUCAUG [U55A C69U G94C] it is -3.36. As for GGAUCUUCUCGAUCUAACAAAAAAGACAAAUCUGCCACAAAGCUUGAGAGCAUCAUCGGAUGCAGAGGAGGCAGCCCUCGGUGGCGCGGUAGCGCCAACGUUCUCAACUAUGACACGCAAAACGCGUGCUCCGUUGAAUGGAGUUUAUCAUG [U55A C69A U77C A89G], the “polymerase ribozyme fitness (log ratio)” value was at most -4.2. The same measure for GGAUCUUCUCGAUCUAACAAAAAAGACAAAUCUGCCACAAAGCUUGAGAGCAUCAUCGGAUGGAGAGGCGGCAGCCUUCGGUGGCGCGAUAGCGCCAACGUUCUCAACUAUGACACGCAAUACGCGUGCUCCGUUGAAUGGAGUUUAUCAUG [U55A C63G A121U]: -0.282. The figure for GGAUCUUCUCGAUCUAACAAAAAAGACAAAUCUGCCACAAAGCUUGAGAGCAUCAUCGGAUGCAGAGGCGGCAGGCGUCGGUGGCGCGAUAGCGCCAACGUUCUCAUCUAUGACACGCAAAACGCGUGCUCCGUUGAAUGGAGUUUAUCAUG [U55A C75G U77G A107U] is at most -4.2; for GGAUCUUCUCGAUCUAACAAAAAAGACAAAUCUGCCACAAAGCUUGAGAGCAUCAUCGGAUGCAGAGGCGGAAGCCUUCGGUGGCGCGAUAGCGCCAAUGUUCUCAACUAUGACACGCAAAACGCAUGCUCCGUUGAACGGAGUUUAUCAUG [U55A C72A C99U G126A U139C] it is at most -4.2; for GGAUCUUCUCGAUCUAACAAAAAAGACAAAUCUGCCACAAAGCUUGAGAGCAUCAUCGGAUGCAGAGGCGGCAGCGUUCGGUGGCGCGAUAGCGCCAACGUUCUCAACUAUGACACGCAAAACGCGUGCUCCGUUGACUGGAGUUUAUCAUG [U55A C76G A138C] it is at most -4.2. The figure for GGAUCUUCUCGAUCUAACAAAAAAGACAAAUCUGCCACAAAGCUUGAGAGCAUCAUCGGAUGCAGAGGUGGCAGCCUUCGGUGGCGCGAUAGUGCCAACGUUCUCAACUAUGACACGCAAAACGCGUGCUCCGUUGAAUGGAGUUUAUCAUG [U55A C69U C93U] is -3.95.
